From article PMC11109247
Where “and” joins values, the source holds several entries; their conditions need not be identical. Equal values may be shown once.

Columns and labels:
[1] = target: prefusion soluble NiV F (sF; NiVBD fusion protein residues 26-482 with GCNt motif) (Nipah virus Bangladesh (NiVBD)); test: BLI
[2] = target: prefusion soluble NiV F (sF; NiVBD fusion protein residues 26-482 with GCNt motif) (Nipah virus Bangladesh (NiVBD)); test: MST
[3] = target: HeV G ectodomain (Hendra virus attachment glycoprotein, residues 71-604), Strep-tagged (Hendra virus) (UniProt O89343); test: SDS-PAGE without reduction and boiling
[4] = target: NiVMY G ectodomain (Nipah virus Malaysia attachment glycoprotein, residues 71-602), Strep-tagged (Nipah virus (Malaysia strain)) (UniProt Q9IH62); test: SDS-PAGE without reduction and boiling

Substance: P-59 (peptide of NiVBD G, 233-247 aa)
- Kd [1]: 0.19 µM
- Kd [2]: 5 µM

Substance: HeV G ectodomain (Hendra virus attachment glycoprotein, residues 71-604), Strep-tagged (from UniProt O89343 71-604) (domain or fragment)
- stoichiometry N [3]: 4 and 2

Substance: NiVMY G ectodomain (Nipah virus Malaysia attachment glycoprotein, residues 71-602), Strep-tagged (from UniProt Q9IH62 71-602) (domain or fragment)
- stoichiometry N [4]: 4 and 2
